Consider five molecules from patent US20020127221A1.

No end group written: not given here. Where only a bound is given, the exact number is not on record here.

Assay [1] has as its target CRF-R1. Briefly: displacement of 125I-Sauvagine, membranes of CHO cells expressing CRFR1, filtration assay.
Assay [2] concerns the target CRF-R2β. Briefly: displacement of 125I-Sauvagine, membranes of CHO cells expressing CRFR2β, filtration assay.
Assay [3] concerns the target CRF-R2β. Briefly: radioreceptor competition vs 125I-[Tyr0,Glu1,Nle17]-sauvagine, CHO cell membranes.
For assay [4], the target named is CRF-R1. The description is as above.
Assay [5] has as its target CRF-R2β. Briefly: cell-based or functional assay.
Assay [6] has as its target CRF-R1. The assay is described as follows: cell-based or functional assay.
In assay [7] the target is CRF-R1. Briefly: assay not named in the summary; presumably 125I-sauvagine competition.
The target in assay [8] is CRF-R1. The assay is described as follows: radioreceptor competition vs labeled sauvagine, CHO cell membranes; reference urocortin.

Chain of CRF-R1 (P34998 24-415): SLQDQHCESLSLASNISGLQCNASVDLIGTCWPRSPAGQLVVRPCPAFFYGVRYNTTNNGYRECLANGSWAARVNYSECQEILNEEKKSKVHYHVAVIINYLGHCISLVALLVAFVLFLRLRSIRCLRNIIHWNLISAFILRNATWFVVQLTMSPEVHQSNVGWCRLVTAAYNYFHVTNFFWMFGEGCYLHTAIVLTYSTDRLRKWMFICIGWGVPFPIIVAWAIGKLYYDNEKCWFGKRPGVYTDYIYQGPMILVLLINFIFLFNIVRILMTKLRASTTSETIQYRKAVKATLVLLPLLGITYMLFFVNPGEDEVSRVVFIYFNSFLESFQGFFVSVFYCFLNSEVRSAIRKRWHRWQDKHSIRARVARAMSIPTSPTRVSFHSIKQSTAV

“urocortin (Ucn), species not stated (from UniProt P55090 81-120) (peptide)”: the Ki with CRF-R1 [1] is 130 pM; with CRF-R2β [2] it was 150 pM.
Take QGPPISIDLSLELLRKMIEIEKQEKEKQQAANNRLLLDTI (peptide, UniProt P01144 1-40, looked up, ends and bridges not checked) [Sauvagine (frog)]: the Ki is 1700 pM with CRF-R2β [3] and 940 pM in the assay with CRF-R1 [4].
Turning to IVLSLDVPIGLLQILLEQARARAAREQATTNARILARVGHC-NH2 [human urocortin-related peptide], the Ki with CRF-R2β [3] was found to be 500 pM; with CRF-R1 [1], 78000 pM; with CRF-R2β [2], 230 pM; with CRF-R1 [7], 70000 pM. The values for the Avg. EC50 (nM) (cAMP) in the assay with CRF-R2β [5] and with CRF-R1 [6] were 0.42 nM and above 100 nM, respectively.
The molecule DDPPLSIDLTFHLLRTLLELARTQSQRERAEQNRIIFDSV (peptide, UniProt P55090 81-120, looked up) [Urocortin (rat)] returned a Ki with CRF-R2β [3] of 620 pM. Further, the values for the Avg. EC50 (nM) (cAMP) with CRF-R2β [5] and in the assay with CRF-R1 [6] were 0.17 nM and 0.29 nM, respectively.
On to VILSLDVPIGLLRILLEQARYKAARNQAATNAQILAHV-NH2 [Urocortin II (mouse)], for which, in the assay with CRF-R2β [3], the Ki came out at 660 pM. Also, the Avg. EC50 (nM) (cAMP) in the assay with CRF-R2β [5] was 0.14 nM; with CRF-R1 [6], above 100 nM. The molecule further gave a fold less effective than urocortin at competing for binding of labeled sauvagine with CRF-R1 [8] above 1000 fold.
